The record followed here is US20200315149.

In data set [1] the target is recombinant human pro-HGF, P14210.
Data set [2] addresses prekallikrein purified from human plasma, P03952.
For data set [3], the target named is T1, full-length coagulation factor XII purified from human plasma, P00748.
T1 chain: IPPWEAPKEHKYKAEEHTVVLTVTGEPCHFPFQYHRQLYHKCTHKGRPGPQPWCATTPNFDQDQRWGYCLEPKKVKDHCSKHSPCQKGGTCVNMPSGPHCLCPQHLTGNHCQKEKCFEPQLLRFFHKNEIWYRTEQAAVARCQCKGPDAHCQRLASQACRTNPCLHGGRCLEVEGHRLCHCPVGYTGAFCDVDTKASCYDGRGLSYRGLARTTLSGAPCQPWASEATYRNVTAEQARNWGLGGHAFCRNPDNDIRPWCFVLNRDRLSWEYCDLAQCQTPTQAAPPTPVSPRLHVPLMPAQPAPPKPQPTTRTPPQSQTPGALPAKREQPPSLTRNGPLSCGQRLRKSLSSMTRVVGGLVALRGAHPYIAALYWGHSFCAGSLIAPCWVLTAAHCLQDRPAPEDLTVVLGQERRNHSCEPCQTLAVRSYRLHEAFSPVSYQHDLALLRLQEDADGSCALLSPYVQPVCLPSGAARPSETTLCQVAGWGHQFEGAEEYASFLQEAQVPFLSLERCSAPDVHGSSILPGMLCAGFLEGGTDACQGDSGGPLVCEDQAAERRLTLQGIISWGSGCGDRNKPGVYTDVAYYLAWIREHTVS

Sequence of recombinant human pro-HGF, P14210 (P14210 32-728): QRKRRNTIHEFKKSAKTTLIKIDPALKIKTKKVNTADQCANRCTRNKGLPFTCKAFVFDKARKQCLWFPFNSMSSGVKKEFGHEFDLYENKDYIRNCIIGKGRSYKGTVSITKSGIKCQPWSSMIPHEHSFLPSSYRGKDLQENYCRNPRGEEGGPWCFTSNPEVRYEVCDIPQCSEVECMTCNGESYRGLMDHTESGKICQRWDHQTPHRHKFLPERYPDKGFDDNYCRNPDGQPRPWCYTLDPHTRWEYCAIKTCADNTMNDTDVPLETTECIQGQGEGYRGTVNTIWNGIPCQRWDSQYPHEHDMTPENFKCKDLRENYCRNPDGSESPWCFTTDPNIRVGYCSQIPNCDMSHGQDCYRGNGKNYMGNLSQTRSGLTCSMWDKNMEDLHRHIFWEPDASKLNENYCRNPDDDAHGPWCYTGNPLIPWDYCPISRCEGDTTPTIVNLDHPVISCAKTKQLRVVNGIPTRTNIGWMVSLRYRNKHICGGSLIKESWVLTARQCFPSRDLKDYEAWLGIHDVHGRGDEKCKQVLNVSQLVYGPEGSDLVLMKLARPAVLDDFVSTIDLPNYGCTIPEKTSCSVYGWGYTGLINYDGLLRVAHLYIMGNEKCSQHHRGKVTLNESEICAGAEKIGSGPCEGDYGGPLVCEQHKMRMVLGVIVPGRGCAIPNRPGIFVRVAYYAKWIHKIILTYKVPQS
Sequence of prekallikrein purified from human plasma, P03952 (P03952 20-638): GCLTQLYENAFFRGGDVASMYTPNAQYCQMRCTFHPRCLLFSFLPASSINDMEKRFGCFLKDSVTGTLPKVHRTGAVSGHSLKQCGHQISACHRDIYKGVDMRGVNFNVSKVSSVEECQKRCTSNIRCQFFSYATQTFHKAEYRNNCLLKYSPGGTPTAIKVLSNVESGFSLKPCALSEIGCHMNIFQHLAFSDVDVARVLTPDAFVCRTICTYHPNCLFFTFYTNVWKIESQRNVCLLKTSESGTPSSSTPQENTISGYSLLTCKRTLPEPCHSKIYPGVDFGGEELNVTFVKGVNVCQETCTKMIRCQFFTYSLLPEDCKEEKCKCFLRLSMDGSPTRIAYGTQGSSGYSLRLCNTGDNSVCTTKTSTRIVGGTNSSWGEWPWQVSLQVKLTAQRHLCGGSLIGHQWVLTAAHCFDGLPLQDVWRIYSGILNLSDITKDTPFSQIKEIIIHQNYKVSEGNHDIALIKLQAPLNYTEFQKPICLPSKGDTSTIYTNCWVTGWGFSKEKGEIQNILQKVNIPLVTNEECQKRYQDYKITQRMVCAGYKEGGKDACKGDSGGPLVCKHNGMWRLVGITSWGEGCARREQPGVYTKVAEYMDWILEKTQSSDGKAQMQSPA

B1: kallikrein-activated FXII (protein)
chain: IPPWEAPKEHKYKAEEHTVVLTVTGEPCHFPFQYHRQLYHKCTHKGRPGPQPWCATTPNFDQDQRWGYCLEPKKVKDHCSKHSPCQKGGTCVNMPSGPHCLCPQHLTGNHCQKEKCFEPQLLRFFHKNEIWYRTEQAAVARCQCKGPDAHCQRLASQACRTNPCLHGGRCLEVEGHRLCHCPVGYTGAFCDVDTKASCYDGRGLSYRGLARTTLSGAPCQPWASEATYRNVTAEQARNWGLGGHAFCRNPDNDIRPWCFVLNRDRLSWEYCDLAQCQTPTQAAPPTPVSPRLHVPLMPAQPAPPKPQPTTRTPPQSQTPGALPAKREQPPSLTRNGPLSCGQRLRKSLSSMTRVVGGLVALRGAHPYIAALYWGHSFCAGSLIAPCWVLTAAHCLQDRPAPEDLTVVLGQERRNHSCEPCQTLAVRSYRLHEAFSPVSYQHDLALLRLQEDADGSCALLSPYVQPVCLPSGAARPSETTLCQVAGWGHQFEGAEEYASFLQEAQVPFLSLERCSAPDVHGSSILPGMLCAGFLEGGTDACQGDSGGPLVCEDQAAERRLTLQGIISWGSGCGDRNKPGVYTDVAYYLAWIREHTVS
With B1, the “cleavage of pro-HGF (25 ug/mL) by kallikrein-activated FXII (50 nM), western blot” value in data set [1] is “Pro-HGF was cleaved by kallikrein-activated FXII297-596 and kallikrein-activated FXII (arrows), but not by inactivated kallikrein alone”.

B2: βFXIIa (protein)
chain: NGPLSCGQRLRKSLSSMTRVVGGLVALRGAHPYIAALYWGHSFCAGSLIAPCWVLTAAHCLQDRPAPEDLTVVLGQERRNHSCEPCQTLAVRSYRLHEAFSPVSYQHDLALLRLQEDADGSCALLSPYVQPVCLPSGAARPSETTLCQVAGWGHQFEGAEEYASFLQEAQVPFLSLERCSAPDVHGSSILPGMLCAGFLEGGTDACQGDSGGPLVCEDQAAERRLTLQGIISWGSGCGDRNKPGVYTDVAYYLAWIREHTVS
Turning to B2, the “cleavage of pro-HGF, western blot” value in data set [1] is “We confirmed the ability of hepatocyte growth factor activator (HGFA) and βFXIIa to cleave pro-HGF”.

B3: two-chain tissue plasminogen activator (protein)
chain: SYQVICRDEKTQMIYQQHQSWLRPVLRSNRVEYCWCNSGRAQCHSVPVKSCSEPRCFNGGTCQQALYFSDFVCQCPEGFAGKCCEIDTRATCYEDQGISYRGTWSTAESGAECTNWNSSALAQKPYSGRRPDAIRLGLGNHNYCRNPDRDSKPWCYVFKAGKYSSEFCSTPACSEGNSDCYFGNGSAYRGTHSLTESGASCLPWNSMILIGKVYTAQNPSAQALGLGKHNYCRNPDGDAKPWCHVLKNRRLTWEYCDVPSCSTCGLRQYSQPQFRIKGGLFADIASHPWQAAIFAKHRRSPGERFLCGGILISSCWILSAAHCFQERFPPHHLTVILGRTYRVVPGEEEQKFEVEKYIVHKEFDDDTYDNDIALLQLKSDSSRCAQESSVVRTVCLPPADLQLPDWTECELSGYGKHEALSPFYSERLKEAHVRLYPSSRCTSQHLLNRTVTDNMLCAGDTRSGGPQANLHDACQGDSGGPLVCLNDGRMTLVGIISWGLGCGQKDVPGVYTKVTNYLDWIRDNMRP
B3: the “cleavage of pro-HGF, western blot” value in data set [1] is “other serine proteases found in the brain such as thrombin and tissue plasminogen activator did not convert pro-HGF to HGF”.

B4: kallikrein-activated FXII297-596 (protein)
chain: MPAQPAPPKPQPTTRTPPQSQTPGALPAKREQPPSLTRNGPLSCGQRLRKSLSSMTRVVGGLVALRGAHPYIAALYWGHSFCAGSLIAPCWVLTAAHCLQDRPAPEDLTVVLGQERRNHSCEPCQTLAVRSYRLHEAFSPVSYQHDLALLRLQEDADGSCALLSPYVQPVCLPSGAARPSETTLCQVAGWGHQFEGAEEYASFLQEAQVPFLSLERCSAPDVHGSSILPGMLCAGFLEGGTDACQGDSGGPLVCEDQAAERRLTLQGIISWGSGCGDRNKPGVYTDVAYYLAWIREHTVS
As for B4, the “cleavage of prekallikrein (200 nM) by activated FXII297-596 (225 nM), western blot for kallikrein heavy chain” value in data set [2] was “activated FXII297-596 converted prekallikrein to kallikrein as seen through the generation of kallikrein heavy chain”. For the same protein, the “cleavage of pro-HGF (25 ug/mL) by activated FXII297-596 (225 nM), western blot with anti-HGF” value in data set [1] was “kallikrein-activated FXII297-596 cleaved pro-HGF to the active two-chain form”.

B5: recombinant human FXII297-596 (protein)
chain: MPAQPAPPKPQPTTRTPPQSQTPGALPAKREQPPSLTRNGPLSCGQRLRKSLSSMTRVVGGLVALRGAHPYIAALYWGHSFCAGSLIAPCWVLTAAHCLQDRPAPEDLTVVLGQERRNHSCEPCQTLAVRSYRLHEAFSPVSYQHDLALLRLQEDADGSCALLSPYVQPVCLPSGAARPSETTLCQVAGWGHQFEGAEEYASFLQEAQVPFLSLERCSAPDVHGSSILPGMLCAGFLEGGTDACQGDSGGPLVCEDQAAERRLTLQGIISWGSGCGDRNKPGVYTDVAYYLAWIREHTVS
For B5, in data set [2], the “cleavage of prekallikrein, western blot” value is “no cleavage of prekallikrein was observed with non-activated FXII297-596”.

B6: cathepsin K (protein)
chain: APDSVDYRKKGYVTPVKNQGQCGSCWAFSSVGALEGQLKKKTGKLLNLSPQNLVDCVSENDGCGGGYMTNAFQYVQKNRGIDSEDAYPYVGQEESCMYNPTGKAAKCRGYREIPEGNEKALKRAVARVGPVSVAIDASLTSFQFYSKGVYYDESCNSDNLNHAVLAVGYGIQKGNKHWIIKNSWGENWGNKGYILMARNKNNACGIANLASFPKM
For B6, the “cleavage of FXII (1.25 uM) by cathepsin K (100 nM), non-reducing SDS-PAGE with Coomassie staining” value in data set [3] is “incubation of full-length FXII with cathepsin K generated stable FXII fragments with sizes supporting cleavage between L296 and M297”.

B7: recombinant human hepatocyte growth factor activator (protein)
chain: QPGGNRTESPEPNATATPAIPTILVTSVTSETPATSAPEAEGPQSGGLPPPPRAVPSSSSPQAQALTEDGRPCRFPFRYGGRMLHACTSEGSAHRKWCATTHNYDRDRAWGYCVEATPPPGGPAALDPCASGPCLNGGSCSNTQDPQSYHCSCPRAFTGKDCGTEKCFDETRYEYLEGGDRWARVRQGHVEQCECFGGRTWCEGTRHTACLSSPCLNGGTCHLIVATGTTVCACPPGFAGRLCNIEPDERCFLGNGTGYRGVASTSASGLSCLAWNSDLLYQELHVDSVGAAALLGLGPHAYCRNPDNDERPWCYVVKDSALSWEYCRLEACESLTRVQLSPDLLATLPEPASPGRQACGRRHKKRTFLRPRIIGGSSSLPGSHPWLAAIYIGDSFCAGSLVHTCWVVSAAHCFSHSPPRDSVSVVLGQHFFNRTTDVTQTFGIEKYIPYTLYSVFNPSDHDLVLIRLKKKGDRCATRSQFVQPICLPEPGSTFPAGHKCQIAGWGHLDENVSGYSSSLREALVPLVADHKCSSPEVYGADISPNMLCAGYFDCKSDACQGDSGGPLACEKNGVAYLYGIISWGDGCGRLHKPGVYTRVANYVDWINDRIRPPRRLVAPS
B7: in data set [1], the “cleavage of pro-HGF, western blot” value is “We confirmed the ability of hepatocyte growth factor activator (HGFA) and βFXIIa to cleave pro-HGF”.
